In patent US20240010735A1 (EISAI R AND D MANAGEMENT, published 2024):

Columns and labels:
Assay in all cases: ELISA: SEAP-His proteins (1 nM) captured on anti-6-His antibody, antibody B 10 µg/mL with human IgG 100 µg/mL, HRP anti-human IgG, OD450 as % of human EphA4-SEAP-His
[1] = target: T1, human EphB4 extracellular region-SEAP-His protein (human, UniProt P54760 16-539)
T1 construct: extracellular domain; also called Eph receptor extracellular region-SEAP-His protein; not shown: secretory alkaline phosphatase (SEAP); histidine tag
T1 sequence (looked up): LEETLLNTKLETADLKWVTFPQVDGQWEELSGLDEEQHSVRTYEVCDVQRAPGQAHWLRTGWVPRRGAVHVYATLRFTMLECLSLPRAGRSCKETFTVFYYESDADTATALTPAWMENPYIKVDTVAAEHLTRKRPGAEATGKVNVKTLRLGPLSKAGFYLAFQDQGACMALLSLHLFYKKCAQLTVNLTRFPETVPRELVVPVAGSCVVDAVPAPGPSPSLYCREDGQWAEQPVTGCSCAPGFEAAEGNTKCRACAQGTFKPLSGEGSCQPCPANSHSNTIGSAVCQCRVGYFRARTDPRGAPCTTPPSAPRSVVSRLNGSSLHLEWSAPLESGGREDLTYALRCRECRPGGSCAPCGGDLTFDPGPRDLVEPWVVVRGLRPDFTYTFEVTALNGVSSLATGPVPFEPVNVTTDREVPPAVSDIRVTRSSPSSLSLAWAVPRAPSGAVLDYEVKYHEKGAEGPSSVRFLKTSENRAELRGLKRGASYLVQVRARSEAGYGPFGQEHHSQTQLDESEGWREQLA

[2] = target: T2, human EphA5 extracellular region-SEAP-His protein (human, UniProt P54756 25-573)
T2 construct: extracellular domain; also called Eph receptor extracellular region-SEAP-His protein; not shown: secretory alkaline phosphatase (SEAP); histidine tag

[3] = target: T3, human EphA2 extracellular region-SEAP-His protein (human, UniProt P29317 24-537)
T3 construct: extracellular domain; also called Eph receptor extracellular region-SEAP-His protein; not shown: secretory alkaline phosphatase (SEAP); histidine tag

[4] = target: T4, human EphB2 extracellular region-SEAP-His protein (human, UniProt P29323 19-543)
T4 construct: extracellular domain; also called Eph receptor extracellular region-SEAP-His protein; not shown: secretory alkaline phosphatase (SEAP); histidine tag
T4 sequence (looked up): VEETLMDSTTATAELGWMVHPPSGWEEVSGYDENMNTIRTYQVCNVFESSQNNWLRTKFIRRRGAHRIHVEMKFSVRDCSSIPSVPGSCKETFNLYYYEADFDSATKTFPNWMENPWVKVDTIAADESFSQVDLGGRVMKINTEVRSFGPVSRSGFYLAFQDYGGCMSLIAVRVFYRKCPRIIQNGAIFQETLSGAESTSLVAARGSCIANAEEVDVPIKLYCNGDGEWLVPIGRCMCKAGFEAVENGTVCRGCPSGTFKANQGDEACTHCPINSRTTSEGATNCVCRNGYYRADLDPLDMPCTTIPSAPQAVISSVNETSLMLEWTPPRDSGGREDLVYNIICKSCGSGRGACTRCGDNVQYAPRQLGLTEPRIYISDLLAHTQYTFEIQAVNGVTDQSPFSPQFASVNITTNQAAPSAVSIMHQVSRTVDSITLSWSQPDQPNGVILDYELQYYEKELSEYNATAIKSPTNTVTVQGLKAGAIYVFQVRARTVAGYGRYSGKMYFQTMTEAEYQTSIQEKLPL

[5] = target: T5, human EphA8 extracellular region-SEAP-His protein (human, UniProt P29322 28-542)
T5 construct: extracellular domain; also called Eph receptor extracellular region-SEAP-His protein; not shown: secretory alkaline phosphatase (SEAP); histidine tag
T5 sequence (looked up): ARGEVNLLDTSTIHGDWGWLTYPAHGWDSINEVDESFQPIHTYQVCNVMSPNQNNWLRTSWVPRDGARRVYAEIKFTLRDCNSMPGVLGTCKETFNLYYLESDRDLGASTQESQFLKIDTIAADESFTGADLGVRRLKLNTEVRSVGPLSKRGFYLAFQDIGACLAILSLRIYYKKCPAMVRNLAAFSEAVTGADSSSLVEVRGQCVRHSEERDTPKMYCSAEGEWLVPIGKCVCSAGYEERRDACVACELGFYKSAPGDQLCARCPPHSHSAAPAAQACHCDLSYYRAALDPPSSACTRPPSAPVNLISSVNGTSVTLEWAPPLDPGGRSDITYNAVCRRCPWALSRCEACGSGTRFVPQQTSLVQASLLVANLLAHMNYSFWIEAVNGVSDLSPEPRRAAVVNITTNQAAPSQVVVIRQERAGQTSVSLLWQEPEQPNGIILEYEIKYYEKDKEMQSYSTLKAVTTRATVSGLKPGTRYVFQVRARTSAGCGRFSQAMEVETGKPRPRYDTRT

Measured: binding result

T3 sequence (P29317 24-537): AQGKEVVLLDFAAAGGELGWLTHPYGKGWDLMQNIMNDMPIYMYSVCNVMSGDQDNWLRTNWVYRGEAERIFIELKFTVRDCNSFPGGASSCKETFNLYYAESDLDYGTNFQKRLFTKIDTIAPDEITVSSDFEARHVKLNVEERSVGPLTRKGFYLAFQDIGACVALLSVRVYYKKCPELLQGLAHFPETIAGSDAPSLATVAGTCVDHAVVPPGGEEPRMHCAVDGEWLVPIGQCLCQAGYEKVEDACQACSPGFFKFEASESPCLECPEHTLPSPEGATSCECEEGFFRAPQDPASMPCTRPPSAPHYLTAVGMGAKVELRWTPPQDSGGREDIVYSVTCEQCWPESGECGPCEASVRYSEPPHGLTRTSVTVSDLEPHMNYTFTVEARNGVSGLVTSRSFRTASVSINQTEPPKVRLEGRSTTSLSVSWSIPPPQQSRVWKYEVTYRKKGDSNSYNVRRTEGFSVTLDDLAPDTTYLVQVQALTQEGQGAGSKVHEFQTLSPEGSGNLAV
T2 sequence (P54756 25-573): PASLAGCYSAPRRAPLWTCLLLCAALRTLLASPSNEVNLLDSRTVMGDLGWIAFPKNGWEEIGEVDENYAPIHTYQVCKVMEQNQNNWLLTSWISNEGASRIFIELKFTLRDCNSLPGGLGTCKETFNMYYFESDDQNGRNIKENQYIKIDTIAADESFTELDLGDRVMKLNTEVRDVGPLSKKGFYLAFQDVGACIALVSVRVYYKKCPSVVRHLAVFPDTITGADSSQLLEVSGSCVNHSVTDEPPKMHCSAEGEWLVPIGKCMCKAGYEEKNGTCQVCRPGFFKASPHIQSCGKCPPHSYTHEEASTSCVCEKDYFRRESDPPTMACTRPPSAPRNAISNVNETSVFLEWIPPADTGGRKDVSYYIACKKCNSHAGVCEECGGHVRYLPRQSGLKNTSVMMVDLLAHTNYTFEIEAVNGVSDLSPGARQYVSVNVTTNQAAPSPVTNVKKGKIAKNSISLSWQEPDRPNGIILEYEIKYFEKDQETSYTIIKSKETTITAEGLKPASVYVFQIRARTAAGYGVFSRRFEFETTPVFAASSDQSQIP

B1: humanized anti-EphA4 monoclonal antibody (antibody B) (antibody, human IgG2, V domains shown)
VH: QVQLVESGGGVVQPGRSLRLSCAVSGFSLTRFGVHWVRQAPGKGLEWVAVIWRGGSTDYNAAFMSRLTISKDNSKNTVYLQMNSLRAEDTAVYYCAKESLFGVYYDYGYYSMDYWGQGTTVTVSS
VL: DIQMTQSPSSLSASVGDRVTITCRASQEISGYLSWLQQKPGKAPKRLIYAASTLDSGVPSRFSGSRSGTEYTLTISSLQPEDFATYYCLQYASYPLTFGGGTKVEIKR
notes: expressed in Expi293F cells; also called humanized antibody of antibody A; HK2-42 / L1-8
no binding (tested: 10 µg/mL): [1] | [2] | [3] | [4] | [5]
